US8710008B2, “Compounds, compositions and use” (Universitetet I Oslo, priority 2008, dated 2014)
Read-outs that look alike come from different tables or passages of the source. Blank lines part the entries; values can stand above or below the molecule they belong to. Positions of bridges follow the written chain, without caps; N, C: chain ends. *: point of attachment. Boc = CC(C)(C)OC(=O)*

Columns and labels:
[1] = molecular target: T1, AQP4 (Homo sapiens, UniProt P55087); details: cited from earlier work
T1 sequence (P55087 whole entry, species assumed): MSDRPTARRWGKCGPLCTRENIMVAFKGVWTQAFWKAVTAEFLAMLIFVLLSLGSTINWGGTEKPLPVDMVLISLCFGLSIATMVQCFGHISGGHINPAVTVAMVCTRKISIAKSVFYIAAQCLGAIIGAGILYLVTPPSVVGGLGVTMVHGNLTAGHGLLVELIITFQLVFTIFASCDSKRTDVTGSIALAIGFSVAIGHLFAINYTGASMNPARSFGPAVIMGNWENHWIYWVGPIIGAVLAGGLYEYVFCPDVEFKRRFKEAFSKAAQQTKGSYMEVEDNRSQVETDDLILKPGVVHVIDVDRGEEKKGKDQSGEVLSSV

[2] = molecular target: T2, AQP1 (Homo sapiens, UniProt P29972); details: cited from earlier work
T2 sequence (P29972 1-269): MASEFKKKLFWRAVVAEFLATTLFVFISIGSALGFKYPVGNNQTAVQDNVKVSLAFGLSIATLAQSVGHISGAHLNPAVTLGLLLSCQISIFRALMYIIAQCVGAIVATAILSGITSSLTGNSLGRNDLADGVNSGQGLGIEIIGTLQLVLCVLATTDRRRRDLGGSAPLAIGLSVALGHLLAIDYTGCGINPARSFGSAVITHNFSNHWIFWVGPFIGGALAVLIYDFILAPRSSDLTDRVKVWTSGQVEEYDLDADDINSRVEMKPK

[3] = test system: crude membranes from rat cerebellum; assay: Radioligand binding assay of [3H]peptide on crude membranes from rat cerebellum
Procedure: The radiolabelled compound denoted [3H]peptide was custom synthesised from the unsaturated precursor 29 (Example 27) by Perkin Elmer Health Sciences Inc., 549 Albany Street, Boston, Mass. 02118, U.S.A. The radioactive compound was received as an EtOH solution. The total activity of the sample was 1 mCi. and the radiological concentration was 2 mCi/mL. The specific activity was 42.9 Ci/mmol and the radiochemical purity (determined by HPLC) 99.8%. The specific activity was determined by mass spectrometry.
Female Wistar rats weighing 250-300 g (Mollegaard, Ejby, Denmark) were used. Experimental protocols conform to National Institutes of Health guidelines for the care and use of animals.
Brain cerebella (1:5 wt/vol) in ice cold 0.3 M sucrose, 50 mM Hepes, pH 7.4, 2 mM EDTA, protease inhibitors (Complete; Roche, Mannheim, Germany) were homogenised in clay-beads-containing tubes by Fastprep shaker and centrifuged at 1,000 g for 10 min at 4° C. The supernatant was spun down at 42,000 g for 60 min at 4° C. […] Protein concentration was determined by the DC Protein Assay Kit (Bio-Rad). […]
Binding data were analysed by non-linear regression using Microsoft Excel with the Solver add-in. The non-specific binding was assumed to be linear as a function of the concentration of free [^3H]peptide and analysed by linear regression. […]

[4] = molecular target: T1, AQP4; details: liposome-based assay; cited from earlier work
[5] = molecular target: crude membranes from rat cerebellum (rat); assay: radioligand saturation binding, filter assay, crude membranes
[6] = molecular target: crude membranes from rat cerebellum (rat); assay: radioligand saturation binding, non-linear regression, unweighted fit
[7] = molecular target: crude membranes from rat cerebellum (rat); assay: radioligand saturation binding, non-linear regression, fit weighted 1/Y
[8] = molecular target: crude membranes from rat cerebellum (rat); assay: radioligand saturation binding, non-linear regression, fit weighted 1/Y^2

Molecule: CC(=O)Nc1nnc(S(N)(=O)=O)s1 [Acetazolamide]
- Effect on water permeation through AQP4 ([1]; Y. Tanimura et al. 2009): reversibly inhibits
- IC50 ([1]; Y. Tanimura et al. 2009, read-out: IC50 of inhibition of water permeation through AQP4): > 1 mM
- Effect on water permeation through AQP1 ([2]; Y. Tanimura et al. 2009): not through AQP1

Molecule: [^3H]peptide: radiolabelled compound custom synthesised from the unsaturated precursor 29 (Example 27); specific activity 42.9 Ci/mmol (Boc-PPSVVSG-OMe; bridge 3-6; not fully specified (bridges); also: tritium label)
- Specific binding ([3]; difference without and with 100 μM unlabelled peptide): 0.5-1 pmol/mg membrane protein
- Kd ([3]; specific binding, non-specific defined with 100 μM unlabelled peptide, read-out: Kd value (affinity)): 100 to 200 nM

Molecule: CC[N+](CC)(CC)CC [tetraethylammonium ions, tetraethylammonium]
- Effect on AQP4 ([1]; up to 10 mmolar concentration, B. Yang et al. 2006): no effect
- Effect on AQP1 ([2]; R. Søgaard et al. 2008): no effect

Molecule: [Cl][Hg][Cl] [mercury chloride]
- Effect on AQP4 [4]: inhibit AQP4

- Kd [5]: 100 to 200 nM
- specific binding (Bmax) (pmol/mg membrane protein) [5]: 0.5 to 1
- Bmax [6]: 2140 cpm
- Bmax (fmol/mg protein) [6]: 1120
- Kd [6]: 107 nM
- Bmax [7]: 1920 cpm
- Bmax (fmol/mg protein) [7]: 1000
- Kd [7]: 92.7 nM
- Bmax [8]: 1920 cpm
- Bmax (fmol/mg protein) [8]: 1000
- Kd [8]: 92.7 nM
Molecule: Boc-PPSVVSG-OMe (bridge 3-6; also: tritium label)
